Here are results for two molecules from paper doi:10.1101/2025.05.22.655486 (bioRxiv, 2025).

Experiment [1] deals with Ectodomain of Arabidopsis thaliana FLAGELLIN-SENSING 2, TwinStrep- and HA-tagged (Arabidopsis thaliana, UniProt Q9FL28 24-806). Description: ligand-depletion assay.
In experiment [2] the target is T1, Ectodomain of Arabidopsis thaliana MIK2, TwinStrep- and HA-tagged (Arabidopsis thaliana, UniProt Q8VZG8 44-709).
T1 sequence (looked up): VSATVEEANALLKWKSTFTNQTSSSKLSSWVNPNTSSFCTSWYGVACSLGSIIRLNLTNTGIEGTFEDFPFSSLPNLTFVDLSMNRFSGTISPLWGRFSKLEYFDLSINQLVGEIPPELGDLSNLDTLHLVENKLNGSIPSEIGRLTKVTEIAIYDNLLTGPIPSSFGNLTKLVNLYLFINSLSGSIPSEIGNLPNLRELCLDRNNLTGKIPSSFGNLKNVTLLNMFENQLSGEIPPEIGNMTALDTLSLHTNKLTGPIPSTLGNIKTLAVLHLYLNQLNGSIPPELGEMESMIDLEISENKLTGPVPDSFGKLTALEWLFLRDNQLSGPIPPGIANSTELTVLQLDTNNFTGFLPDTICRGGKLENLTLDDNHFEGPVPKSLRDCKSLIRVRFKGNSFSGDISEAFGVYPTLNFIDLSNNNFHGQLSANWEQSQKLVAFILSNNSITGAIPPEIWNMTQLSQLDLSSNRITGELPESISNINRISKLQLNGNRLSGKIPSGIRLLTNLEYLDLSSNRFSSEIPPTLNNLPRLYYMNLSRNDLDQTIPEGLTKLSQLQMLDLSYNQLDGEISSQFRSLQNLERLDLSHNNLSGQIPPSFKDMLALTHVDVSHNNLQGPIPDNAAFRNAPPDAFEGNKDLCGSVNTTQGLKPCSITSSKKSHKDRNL
Description: ligand-depletion assay.

Chain of Ectodomain of Arabidopsis thaliana FLAGELLIN-SENSING 2, TwinStrep- and HA-tagged (Q9FL28 24-806): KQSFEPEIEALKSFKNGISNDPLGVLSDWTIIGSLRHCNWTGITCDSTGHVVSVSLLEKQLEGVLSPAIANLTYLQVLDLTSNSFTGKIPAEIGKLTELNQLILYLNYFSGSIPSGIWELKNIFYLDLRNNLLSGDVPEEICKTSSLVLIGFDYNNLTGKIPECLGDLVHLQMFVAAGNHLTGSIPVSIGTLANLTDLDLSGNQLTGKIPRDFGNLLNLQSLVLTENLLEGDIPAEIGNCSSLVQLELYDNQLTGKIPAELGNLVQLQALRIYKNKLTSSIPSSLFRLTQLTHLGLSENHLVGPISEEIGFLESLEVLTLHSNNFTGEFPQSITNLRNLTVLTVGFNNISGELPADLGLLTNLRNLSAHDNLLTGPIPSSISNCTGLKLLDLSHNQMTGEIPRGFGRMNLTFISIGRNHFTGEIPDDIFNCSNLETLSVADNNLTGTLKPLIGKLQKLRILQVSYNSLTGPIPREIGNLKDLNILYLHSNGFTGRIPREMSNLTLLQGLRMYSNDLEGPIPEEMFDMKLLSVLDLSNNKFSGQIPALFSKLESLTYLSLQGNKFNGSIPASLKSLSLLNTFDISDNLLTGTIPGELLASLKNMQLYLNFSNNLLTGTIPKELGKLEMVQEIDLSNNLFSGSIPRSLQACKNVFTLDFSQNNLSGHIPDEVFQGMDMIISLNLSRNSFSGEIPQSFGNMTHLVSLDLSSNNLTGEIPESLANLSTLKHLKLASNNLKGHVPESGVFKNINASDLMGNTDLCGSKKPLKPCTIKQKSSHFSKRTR

QRLSTGSRINSAKDDAAGLQIA [flg22 peptide]: in experiment [1], the binding result is recorded as “binds”.

For the molecule PVRSSQSSQAGGR [AtSCOOP12 (SERINE-RICH ENDOGENOUS PEPTIDE 12)], the binding result in experiment [2] was “binds”.
